Experiments:
Experiment in all cases: SPR; Fcγ receptors immobilised, trastuzumab glycan variants as analyte; Biacore T200; relative binding (%) normalised with trastuzumab starting material; n = 3; procedure in ref. 54
FcγRIIIa V158 = biological target: FcγRIIIa V158
FcγRIIIa F158 = FcγRIIIa F158 (UniProt P08637)
FcγRIIb/c = FcγRIIb/c (UniProt P31994)
FcγRIIa R131 = biological target: FcγRIIa R131

UniProt P31994, sequence (P31994 43-217): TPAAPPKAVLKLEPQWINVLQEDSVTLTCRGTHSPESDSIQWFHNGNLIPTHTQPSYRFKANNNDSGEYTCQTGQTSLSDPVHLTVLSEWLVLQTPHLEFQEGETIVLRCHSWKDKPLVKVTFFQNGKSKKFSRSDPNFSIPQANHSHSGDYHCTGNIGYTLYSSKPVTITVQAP

Substance | relative binding (% of trastuzumab starting material) (FcγRIIIa V158) [%] | relative binding (% of trastuzumab starting material) (FcγRIIIa F158) [%] | relative binding (% of trastuzumab starting material) (FcγRIIb/c) [%] | relative binding (% of trastuzumab starting material) (FcγRIIa R131) [%]
Trastuzumab hyper-galactosylated variant G2F (antibody) | 120 | 124 |  | 
Trastuzumab α-2,3-sialylated variant G2S2F ST3 (antibody) |  | 62 |  | 
Trastuzumab α-2,6-sialylated variant G2S2F ST6 (antibody) | 121 | 150 | 162 | 130
